Assay results: the supplement of paper PMC10065799, “High-throughput profiling of sequence recognition by tyrosine kinases and SH2 domains using bacterial peptide display” (eLife, 2023)

target: SHP2-C SH2; assay: SH2 binding enrichment of the phosphorylated peptide, bacterial display (enrichment ratio); higher = better substrate or ligand; peptides without Tyr show the background
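For SH2 binding enrichment of the phosphorylated peptide, bacterial display in this document: peptide library displayed on the E. coli surface as eCPX fusions, selected cells deep-sequenced, score is each peptide's frequency after selection divided by its frequency in the input.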
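For phosphorylation enrichment, bacterial display in this document: 11-residue human phosphosite peptides and single-mutation variants displayed on the E. coli surface, counted by deep sequencing, each peptide's frequency after selection divided by its frequency in the unselected input library; frequency after pTyr selection over input frequency; kinase dosed for 20-30% of maximal phosphorylation in three min.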

First: QDDTVYMGKVI [DCTN1_Y1244_T1249I]
Second: IPGVEYLVSII [TNC_Y1775]
The SH2 binding enrichment of the first is lower: 0.427 for the first, 0.944 for the second.

First: SIKHKYVTALY [KCNH2_Y611_D609H]
Second: TGEKLYQRKEF [ZNF283_Y627]
The SH2 binding enrichment of the first is lower: 0.63 for the first, 0.728 for the second.

First: KAEQLYIGVTV [EFHC2_Y509_E507Q]
Second: IEPCIYIPEDD [XPNPEP3_Y455_G453C]
The SH2 binding enrichment of the first is lower: 0.733 for the first, 0.821 for the second.

Going from KVMANYMFKAG [MAML2_Y513_YF] to ASLEAYCKHKY [RXRA_Y403], the SH2 binding enrichment rises from 0.697 to 0.733.

Going from QQLQGYIPSNF [FRK_Y99_YF] to AQADIYKANFQ [IKBKG_Y308_D311N], the SH2 binding enrichment rises from 0.519 to 0.729.

RSSKMYFKTRS [LPL_Y329_L330F] and SGSFRYGSSCE [SELE_Y390] are the same in SH2 binding enrichment: 0.747 for the first, 0.747 for the second.

Compared with FSAGTYPRLEE [SYCN_Y108], VEDDMYRKTCT [XPA_Y257_L252V] is higher in SH2 binding enrichment: 0.612 for the first, 0.828 for the second.

First: MFKPMYALFRT [HUWE1_Y4078_N4075K]
Second: DRTGHYLCNAC [GATA1_Y223]
The SH2 binding enrichment of the first is higher: 1.86 for the first, 0.595 for the second.

target: Grb2 SH2 (UniProt P62993); assay: as above
Sequence (P62993 whole entry, looked up): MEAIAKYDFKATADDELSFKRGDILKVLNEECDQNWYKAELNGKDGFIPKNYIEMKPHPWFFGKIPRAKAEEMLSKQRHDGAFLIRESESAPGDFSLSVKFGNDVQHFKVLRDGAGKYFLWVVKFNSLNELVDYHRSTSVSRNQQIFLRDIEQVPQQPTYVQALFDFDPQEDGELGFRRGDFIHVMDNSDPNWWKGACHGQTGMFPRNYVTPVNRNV

Going from QDDTVYMGKVI [DCTN1_Y1244_T1249I] to IPGVEYLVSII [TNC_Y1775], the SH2 binding enrichment falls from 1.05 to 1.

First: SIKHKYVTALY [KCNH2_Y611_D609H]
Second: TGEKLYQRKEF [ZNF283_Y627]
The SH2 binding enrichment of the first is lower: 0.761 for the first, 0.889 for the second.

Going from KAEQLYIGVTV [EFHC2_Y509_E507Q] to IEPCIYIPEDD [XPNPEP3_Y455_G453C], the SH2 binding enrichment rises from 0.708 to 1.2.

Going from KVMANYMFKAG [MAML2_Y513_YF] to ASLEAYCKHKY [RXRA_Y403], the SH2 binding enrichment falls from 0.934 to 0.831.

Going from QQLQGYIPSNF [FRK_Y99_YF] to AQADIYKANFQ [IKBKG_Y308_D311N], the SH2 binding enrichment rises from 0.674 to 0.873.

First: RSSKMYFKTRS [LPL_Y329_L330F]
Second: SGSFRYGSSCE [SELE_Y390]
The SH2 binding enrichment of the first is higher: 0.884 for the first, 0.748 for the second.

Compared with FSAGTYPRLEE [SYCN_Y108], VEDDMYRKTCT [XPA_Y257_L252V] is higher in SH2 binding enrichment: 0.783 for the first, 0.894 for the second.

Compared with MFKPMYALFRT [HUWE1_Y4078_N4075K], DRTGHYLCNAC [GATA1_Y223] is lower in SH2 binding enrichment: 1.35 for the first, 0.792 for the second.

target: c-Src SH2; assay: as above

Going from QDDTVYMGKVI [DCTN1_Y1244_T1249I] to IPGVEYLVSII [TNC_Y1775], the SH2 binding enrichment rises from 0.389 to 0.648.

Compared with SIKHKYVTALY [KCNH2_Y611_D609H], TGEKLYQRKEF [ZNF283_Y627] is lower in SH2 binding enrichment: 0.484 for the first, 0.456 for the second.

First: KAEQLYIGVTV [EFHC2_Y509_E507Q]
Second: IEPCIYIPEDD [XPNPEP3_Y455_G453C]
The SH2 binding enrichment of the first is lower: 0.454 for the first, 0.719 for the second.

First: KVMANYMFKAG [MAML2_Y513_YF]
Second: ASLEAYCKHKY [RXRA_Y403]
The SH2 binding enrichment of the first is higher: 0.651 for the first, 0.548 for the second.

First: QQLQGYIPSNF [FRK_Y99_YF]
Second: AQADIYKANFQ [IKBKG_Y308_D311N]
The SH2 binding enrichment of the first is lower: 0.47 for the first, 0.504 for the second.

Compared with RSSKMYFKTRS [LPL_Y329_L330F], SGSFRYGSSCE [SELE_Y390] is higher in SH2 binding enrichment: 0.459 for the first, 0.528 for the second.

Compared with FSAGTYPRLEE [SYCN_Y108], VEDDMYRKTCT [XPA_Y257_L252V] is lower in SH2 binding enrichment: 1.18 for the first, 0.494 for the second.

Going from MFKPMYALFRT [HUWE1_Y4078_N4075K] to DRTGHYLCNAC [GATA1_Y223], the SH2 binding enrichment falls from 1.52 to 0.503.

target: Jak2 (UniProt O60674); assay: phosphorylation enrichment, bacterial display (enrichment ratio); higher = better substrate or ligand; peptides without Tyr show the background
Sequence (O60674 whole entry, looked up): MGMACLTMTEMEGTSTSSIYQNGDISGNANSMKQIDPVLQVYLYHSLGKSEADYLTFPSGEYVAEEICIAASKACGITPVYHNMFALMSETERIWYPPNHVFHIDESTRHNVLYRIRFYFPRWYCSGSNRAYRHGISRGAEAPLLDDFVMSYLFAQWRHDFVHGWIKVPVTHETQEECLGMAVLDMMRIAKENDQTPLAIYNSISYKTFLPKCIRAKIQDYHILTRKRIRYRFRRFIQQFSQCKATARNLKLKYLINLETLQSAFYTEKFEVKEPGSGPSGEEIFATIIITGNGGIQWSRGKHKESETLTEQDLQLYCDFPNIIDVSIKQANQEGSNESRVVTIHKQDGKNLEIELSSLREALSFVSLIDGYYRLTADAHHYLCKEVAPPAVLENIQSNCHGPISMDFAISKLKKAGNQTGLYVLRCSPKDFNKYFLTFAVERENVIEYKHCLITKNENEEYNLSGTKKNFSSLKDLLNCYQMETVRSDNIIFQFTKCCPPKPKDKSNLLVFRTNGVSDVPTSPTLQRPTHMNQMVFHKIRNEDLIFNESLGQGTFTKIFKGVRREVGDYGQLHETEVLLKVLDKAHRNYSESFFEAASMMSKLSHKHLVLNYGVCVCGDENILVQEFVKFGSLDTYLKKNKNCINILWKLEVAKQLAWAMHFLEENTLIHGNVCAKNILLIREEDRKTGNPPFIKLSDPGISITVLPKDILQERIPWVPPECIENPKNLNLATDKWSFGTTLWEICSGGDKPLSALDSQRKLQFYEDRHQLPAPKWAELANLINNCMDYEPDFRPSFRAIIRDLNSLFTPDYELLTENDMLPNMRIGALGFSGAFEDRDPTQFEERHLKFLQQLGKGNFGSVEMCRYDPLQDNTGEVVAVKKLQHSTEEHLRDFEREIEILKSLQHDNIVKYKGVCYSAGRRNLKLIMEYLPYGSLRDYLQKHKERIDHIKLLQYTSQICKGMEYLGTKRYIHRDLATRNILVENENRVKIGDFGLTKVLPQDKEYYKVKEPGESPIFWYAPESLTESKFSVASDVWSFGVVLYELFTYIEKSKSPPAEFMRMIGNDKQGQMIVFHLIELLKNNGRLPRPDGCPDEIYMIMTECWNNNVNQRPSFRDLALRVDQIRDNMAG

Compared with QDDTVYMGKVI [DCTN1_Y1244_T1249I], IPGVEYLVSII [TNC_Y1775] is lower in phosphorylation enrichment: 1.57 for the first, 1.19 for the second.

Going from SIKHKYVTALY [KCNH2_Y611_D609H] to TGEKLYQRKEF [ZNF283_Y627], the phosphorylation enrichment rises from 0.528 to 0.59.

First: KAEQLYIGVTV [EFHC2_Y509_E507Q]
Second: IEPCIYIPEDD [XPNPEP3_Y455_G453C]
The phosphorylation enrichment of the first is lower: 0.964 for the first, 1.25 for the second.

Going from KVMANYMFKAG [MAML2_Y513_YF] to ASLEAYCKHKY [RXRA_Y403], the phosphorylation enrichment rises from 0.519 to 0.799.

Compared with QQLQGYIPSNF [FRK_Y99_YF], AQADIYKANFQ [IKBKG_Y308_D311N] is lower in phosphorylation enrichment: 0.981 for the first, 0.829 for the second.

Compared with RSSKMYFKTRS [LPL_Y329_L330F], SGSFRYGSSCE [SELE_Y390] is lower in phosphorylation enrichment: 0.989 for the first, 0.644 for the second.

First: FSAGTYPRLEE [SYCN_Y108]
Second: VEDDMYRKTCT [XPA_Y257_L252V]
The phosphorylation enrichment of the first is lower: 0.828 for the first, 1.33 for the second.

Going from MFKPMYALFRT [HUWE1_Y4078_N4075K] to DRTGHYLCNAC [GATA1_Y223], the phosphorylation enrichment rises from 0.704 to 0.885.

target: EPHB1 (UniProt P54762); assay: as above
Sequence (P54762 whole entry, looked up): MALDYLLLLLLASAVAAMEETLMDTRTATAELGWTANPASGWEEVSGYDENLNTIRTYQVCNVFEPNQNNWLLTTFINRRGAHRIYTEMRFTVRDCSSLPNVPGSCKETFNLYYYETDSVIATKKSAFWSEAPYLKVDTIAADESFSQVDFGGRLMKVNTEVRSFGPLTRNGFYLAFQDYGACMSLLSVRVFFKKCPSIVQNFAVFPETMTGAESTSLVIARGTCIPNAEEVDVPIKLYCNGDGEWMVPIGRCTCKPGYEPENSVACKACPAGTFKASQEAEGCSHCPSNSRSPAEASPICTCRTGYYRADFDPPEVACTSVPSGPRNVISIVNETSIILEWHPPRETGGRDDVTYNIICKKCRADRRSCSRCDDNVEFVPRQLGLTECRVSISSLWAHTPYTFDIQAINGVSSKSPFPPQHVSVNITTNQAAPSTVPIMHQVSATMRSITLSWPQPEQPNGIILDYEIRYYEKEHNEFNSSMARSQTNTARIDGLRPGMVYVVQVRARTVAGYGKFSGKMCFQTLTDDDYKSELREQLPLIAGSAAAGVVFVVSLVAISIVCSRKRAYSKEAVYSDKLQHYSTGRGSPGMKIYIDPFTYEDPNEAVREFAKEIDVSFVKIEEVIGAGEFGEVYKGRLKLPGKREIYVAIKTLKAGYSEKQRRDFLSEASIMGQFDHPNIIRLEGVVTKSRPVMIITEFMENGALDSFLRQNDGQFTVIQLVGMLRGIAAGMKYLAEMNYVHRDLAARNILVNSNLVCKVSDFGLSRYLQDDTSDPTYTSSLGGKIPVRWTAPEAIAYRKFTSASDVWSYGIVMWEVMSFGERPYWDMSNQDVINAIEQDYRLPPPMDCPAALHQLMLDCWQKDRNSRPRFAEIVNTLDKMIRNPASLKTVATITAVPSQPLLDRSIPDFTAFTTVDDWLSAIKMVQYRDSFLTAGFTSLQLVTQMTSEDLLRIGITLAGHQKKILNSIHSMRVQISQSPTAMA

Going from QDDTVYMGKVI [DCTN1_Y1244_T1249I] to IPGVEYLVSII [TNC_Y1775], the phosphorylation enrichment falls from 0.873 to 0.667.

Going from SIKHKYVTALY [KCNH2_Y611_D609H] to TGEKLYQRKEF [ZNF283_Y627], the phosphorylation enrichment rises from 0.399 to 0.62.

First: KAEQLYIGVTV [EFHC2_Y509_E507Q]
Second: IEPCIYIPEDD [XPNPEP3_Y455_G453C]
The phosphorylation enrichment of the first is higher: 1.27 for the first, 0.648 for the second.

Compared with KVMANYMFKAG [MAML2_Y513_YF], ASLEAYCKHKY [RXRA_Y403] is higher in phosphorylation enrichment: 0.448 for the first, 0.53 for the second.

First: QQLQGYIPSNF [FRK_Y99_YF]
Second: AQADIYKANFQ [IKBKG_Y308_D311N]
The phosphorylation enrichment of the first is higher: 0.763 for the first, 0.361 for the second.

Going from RSSKMYFKTRS [LPL_Y329_L330F] to SGSFRYGSSCE [SELE_Y390], the phosphorylation enrichment falls from 0.685 to 0.412.

Compared with FSAGTYPRLEE [SYCN_Y108], VEDDMYRKTCT [XPA_Y257_L252V] is higher in phosphorylation enrichment: 0.493 for the first, 0.676 for the second.

Compared with MFKPMYALFRT [HUWE1_Y4078_N4075K], DRTGHYLCNAC [GATA1_Y223] is lower in phosphorylation enrichment: 0.963 for the first, 0.389 for the second.

target: Fes (UniProt P07332); assay: as above
Sequence (P07332 whole entry, looked up): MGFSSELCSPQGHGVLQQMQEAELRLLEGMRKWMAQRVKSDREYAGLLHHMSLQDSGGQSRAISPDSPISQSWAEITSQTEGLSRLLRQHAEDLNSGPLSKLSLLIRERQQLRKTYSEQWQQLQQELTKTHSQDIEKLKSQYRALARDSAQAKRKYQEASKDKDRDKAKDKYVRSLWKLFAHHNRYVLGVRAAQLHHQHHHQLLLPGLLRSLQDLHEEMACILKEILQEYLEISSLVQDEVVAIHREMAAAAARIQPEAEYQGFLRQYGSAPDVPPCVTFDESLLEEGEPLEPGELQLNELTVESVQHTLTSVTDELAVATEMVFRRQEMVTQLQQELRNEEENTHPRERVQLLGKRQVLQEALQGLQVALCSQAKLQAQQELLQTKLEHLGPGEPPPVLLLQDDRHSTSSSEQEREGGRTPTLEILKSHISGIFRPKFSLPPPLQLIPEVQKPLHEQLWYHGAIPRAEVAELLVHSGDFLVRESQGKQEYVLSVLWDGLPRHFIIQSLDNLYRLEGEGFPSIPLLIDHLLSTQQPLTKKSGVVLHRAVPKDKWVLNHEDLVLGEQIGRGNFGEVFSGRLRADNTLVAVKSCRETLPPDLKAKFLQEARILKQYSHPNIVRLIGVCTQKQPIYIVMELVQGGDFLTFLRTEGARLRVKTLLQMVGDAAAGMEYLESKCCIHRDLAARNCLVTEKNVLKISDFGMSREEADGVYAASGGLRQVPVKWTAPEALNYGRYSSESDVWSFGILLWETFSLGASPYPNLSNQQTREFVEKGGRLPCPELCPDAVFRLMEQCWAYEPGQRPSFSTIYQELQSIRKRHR

First: QDDTVYMGKVI [DCTN1_Y1244_T1249I]
Second: IPGVEYLVSII [TNC_Y1775]
The phosphorylation enrichment of the first is higher: 1.72 for the first, 1.14 for the second.

Going from SIKHKYVTALY [KCNH2_Y611_D609H] to TGEKLYQRKEF [ZNF283_Y627], the phosphorylation enrichment rises from 0.582 to 0.847.

Going from KAEQLYIGVTV [EFHC2_Y509_E507Q] to IEPCIYIPEDD [XPNPEP3_Y455_G453C], the phosphorylation enrichment rises from 1.25 to 1.47.

First: KVMANYMFKAG [MAML2_Y513_YF]
Second: ASLEAYCKHKY [RXRA_Y403]
The phosphorylation enrichment of the first is lower: 0.675 for the first, 1.01 for the second.

First: QQLQGYIPSNF [FRK_Y99_YF]
Second: AQADIYKANFQ [IKBKG_Y308_D311N]
The phosphorylation enrichment of the first is higher: 1.29 for the first, 0.81 for the second.

Compared with RSSKMYFKTRS [LPL_Y329_L330F], SGSFRYGSSCE [SELE_Y390] is lower in phosphorylation enrichment: 1.22 for the first, 0.801 for the second.

Going from FSAGTYPRLEE [SYCN_Y108] to VEDDMYRKTCT [XPA_Y257_L252V], the phosphorylation enrichment rises from 0.918 to 1.3.

First: MFKPMYALFRT [HUWE1_Y4078_N4075K]
Second: DRTGHYLCNAC [GATA1_Y223]
The phosphorylation enrichment of the first is higher: 0.982 for the first, 0.769 for the second.

target: FGFR3 (UniProt P22607); assay: as above
Sequence (P22607 whole entry, looked up): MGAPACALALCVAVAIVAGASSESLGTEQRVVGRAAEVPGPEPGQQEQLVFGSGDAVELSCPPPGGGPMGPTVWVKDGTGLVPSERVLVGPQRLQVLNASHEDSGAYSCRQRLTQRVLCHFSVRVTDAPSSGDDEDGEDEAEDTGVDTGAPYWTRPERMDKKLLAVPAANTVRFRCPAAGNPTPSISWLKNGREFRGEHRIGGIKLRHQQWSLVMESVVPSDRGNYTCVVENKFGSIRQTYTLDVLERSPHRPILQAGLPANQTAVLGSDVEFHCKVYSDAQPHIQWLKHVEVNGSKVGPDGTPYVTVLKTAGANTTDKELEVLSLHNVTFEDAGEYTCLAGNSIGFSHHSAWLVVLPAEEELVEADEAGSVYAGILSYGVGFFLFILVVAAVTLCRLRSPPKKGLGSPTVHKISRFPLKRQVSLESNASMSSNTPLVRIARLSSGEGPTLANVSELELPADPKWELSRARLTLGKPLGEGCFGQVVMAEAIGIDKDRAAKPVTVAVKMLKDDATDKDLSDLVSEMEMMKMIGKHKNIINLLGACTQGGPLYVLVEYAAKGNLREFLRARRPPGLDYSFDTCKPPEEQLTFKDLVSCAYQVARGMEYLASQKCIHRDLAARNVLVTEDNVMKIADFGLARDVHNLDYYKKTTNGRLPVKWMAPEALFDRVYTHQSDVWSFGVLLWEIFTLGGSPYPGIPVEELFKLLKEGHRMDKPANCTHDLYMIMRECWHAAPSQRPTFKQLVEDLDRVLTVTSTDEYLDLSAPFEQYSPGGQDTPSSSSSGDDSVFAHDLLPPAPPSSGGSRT

First: QDDTVYMGKVI [DCTN1_Y1244_T1249I]
Second: IPGVEYLVSII [TNC_Y1775]
The phosphorylation enrichment of the first is higher: 0.938 for the first, 0.723 for the second.

Going from SIKHKYVTALY [KCNH2_Y611_D609H] to TGEKLYQRKEF [ZNF283_Y627], the phosphorylation enrichment falls from 0.594 to 0.489.

Going from KAEQLYIGVTV [EFHC2_Y509_E507Q] to IEPCIYIPEDD [XPNPEP3_Y455_G453C], the phosphorylation enrichment falls from 2.88 to 0.87.

Compared with KVMANYMFKAG [MAML2_Y513_YF], ASLEAYCKHKY [RXRA_Y403] is higher in phosphorylation enrichment: 0.418 for the first, 0.658 for the second.

Compared with QQLQGYIPSNF [FRK_Y99_YF], AQADIYKANFQ [IKBKG_Y308_D311N] is lower in phosphorylation enrichment: 1.09 for the first, 0.573 for the second.

Going from RSSKMYFKTRS [LPL_Y329_L330F] to SGSFRYGSSCE [SELE_Y390], the phosphorylation enrichment falls from 0.561 to 0.554.

Compared with FSAGTYPRLEE [SYCN_Y108], VEDDMYRKTCT [XPA_Y257_L252V] is higher in phosphorylation enrichment: 0.659 for the first, 0.868 for the second.

Compared with MFKPMYALFRT [HUWE1_Y4078_N4075K], DRTGHYLCNAC [GATA1_Y223] is lower in phosphorylation enrichment: 0.698 for the first, 0.449 for the second.

target: MERTK (UniProt Q12866); assay: as above
Sequence (Q12866 whole entry, looked up): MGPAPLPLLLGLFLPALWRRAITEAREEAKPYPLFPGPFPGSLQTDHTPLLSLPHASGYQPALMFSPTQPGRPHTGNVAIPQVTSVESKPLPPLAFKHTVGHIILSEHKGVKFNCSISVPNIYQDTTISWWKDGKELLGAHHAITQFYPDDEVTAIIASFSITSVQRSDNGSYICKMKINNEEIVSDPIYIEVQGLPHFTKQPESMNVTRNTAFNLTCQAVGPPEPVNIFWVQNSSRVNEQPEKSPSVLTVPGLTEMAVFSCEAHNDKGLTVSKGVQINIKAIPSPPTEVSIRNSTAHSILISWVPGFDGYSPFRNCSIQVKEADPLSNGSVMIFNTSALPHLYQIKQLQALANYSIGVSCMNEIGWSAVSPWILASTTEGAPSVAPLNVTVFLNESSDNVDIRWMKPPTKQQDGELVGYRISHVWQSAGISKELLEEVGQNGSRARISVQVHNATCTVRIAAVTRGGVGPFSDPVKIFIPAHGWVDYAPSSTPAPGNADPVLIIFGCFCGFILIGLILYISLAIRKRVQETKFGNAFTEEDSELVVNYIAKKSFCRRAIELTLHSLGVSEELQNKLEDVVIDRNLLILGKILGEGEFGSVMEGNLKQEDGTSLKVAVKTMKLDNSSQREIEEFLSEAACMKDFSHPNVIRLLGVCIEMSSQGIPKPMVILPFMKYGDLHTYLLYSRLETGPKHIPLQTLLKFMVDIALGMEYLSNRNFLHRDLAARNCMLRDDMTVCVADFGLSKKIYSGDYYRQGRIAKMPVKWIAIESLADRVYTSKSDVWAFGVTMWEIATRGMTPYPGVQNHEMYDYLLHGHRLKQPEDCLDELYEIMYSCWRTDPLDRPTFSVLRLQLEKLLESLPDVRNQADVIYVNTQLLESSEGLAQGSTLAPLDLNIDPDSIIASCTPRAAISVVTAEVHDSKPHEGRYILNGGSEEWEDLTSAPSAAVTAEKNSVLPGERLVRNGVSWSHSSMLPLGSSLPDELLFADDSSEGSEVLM

First: QDDTVYMGKVI [DCTN1_Y1244_T1249I]
Second: IPGVEYLVSII [TNC_Y1775]
The phosphorylation enrichment of the first is higher: 0.765 for the first, 0.409 for the second.

First: SIKHKYVTALY [KCNH2_Y611_D609H]
Second: TGEKLYQRKEF [ZNF283_Y627]
The phosphorylation enrichment of the first is lower: 0.407 for the first, 0.477 for the second.

First: KAEQLYIGVTV [EFHC2_Y509_E507Q]
Second: IEPCIYIPEDD [XPNPEP3_Y455_G453C]
The phosphorylation enrichment of the first is higher: 2.99 for the first, 0.428 for the second.

Going from KVMANYMFKAG [MAML2_Y513_YF] to ASLEAYCKHKY [RXRA_Y403], the phosphorylation enrichment falls from 0.432 to 0.392.

Compared with QQLQGYIPSNF [FRK_Y99_YF], AQADIYKANFQ [IKBKG_Y308_D311N] is lower in phosphorylation enrichment: 0.878 for the first, 0.461 for the second.

Compared with RSSKMYFKTRS [LPL_Y329_L330F], SGSFRYGSSCE [SELE_Y390] is lower in phosphorylation enrichment: 0.712 for the first, 0.388 for the second.

Going from FSAGTYPRLEE [SYCN_Y108] to VEDDMYRKTCT [XPA_Y257_L252V], the phosphorylation enrichment rises from 0.372 to 0.507.

First: MFKPMYALFRT [HUWE1_Y4078_N4075K]
Second: DRTGHYLCNAC [GATA1_Y223]
The phosphorylation enrichment of the first is higher: 2.87 for the first, 0.499 for the second.
